Assay results from publication PMC10899789, “Flexible structural arrangement and DNA-binding properties of protein p6 from Bacillus subtillis phage φ29” (Nucleic Acids Research, 2024).

Molecular target: the molecule itself
Assay: AUC; sedimentation velocity, protein alone, 48 000 rpm, 20°C, 50 mM Tris-HCl pH 7.5, 10 mM MgCl2, 50 mM NaCl; 2.5-320 μM protein; isotherms of weight-average sedimentation coefficients fitted to a monomer-dimer self-association model (SEDPHAT); dimer to monomers

| Protein | Kd [µM] |
| --- | --- |
| p6CΔ20 (residues 1–83), C-terminal deletion mutant of φ29 protein p6 (domain or fragment) AKMMQREITKTTVNVAKMVMVDGEVQVEQLPSETFVGNLTMEQAQWRMKRKYKGEPVQVVSVEPNTEVYELPVEKFLEVATVR | 47 |
| Full-length protein p6 (wt) of Bacillus subtilis bacteriophage φ29 (natural protein, UniProt P03685 1-104, looked up, numbers count on: the traditional numbering of φ29 p6, where the second residue (Ala) is position 1 because the initial Met is removed in vivo; about 11.8 kDa as printed; also called wt p6; φ29 protein p6; source: produced and purified as previously described (23)) MAKMMQREITKTTVNVAKMVMVDGEVQVEQLPSETFVGNLTMEQAQWRMKRKYKGEPVQVVSVEPNTEVYELPVEKFLEVATVRVEKDEDQEEQTEAPEEQVAE | 11.4 |
